Experiment [1] has as its target T1, PD-L1 extracellular domain (ECD) (UniProt Q9NZQ7 19-238, limits assumed).
T1 construct: extracellular domain; Soluble PD-L1 used in the yeast-display titrations and in BLI; Tags or biotinylation are not described; also called Programmed death-ligand 1; CD274
Nature of the experiment: yeast-displayed clone, soluble PD-L1 titration, flow cytometry.

Experiment [2] concerns the target T1, PD-L1 extracellular domain (ECD). As to the kind of experiment: BLI, equilibrium binding, soluble fragment on immobilized PD-L1.
The target is the same in experiment [3]. As to the kind of experiment: BLI competition: B8 VNAR immobilized on the tip, 100 nM PD-L1, soluble B8 VNAR titrated as competitor.
Experiment [4] deals with PD-L1 on cells (UniProt Q9NZQ7). As to the kind of experiment: cell-based or functional assay.
Chain of PD-L1 on cells (Q9NZQ7 19-290 limits assumed): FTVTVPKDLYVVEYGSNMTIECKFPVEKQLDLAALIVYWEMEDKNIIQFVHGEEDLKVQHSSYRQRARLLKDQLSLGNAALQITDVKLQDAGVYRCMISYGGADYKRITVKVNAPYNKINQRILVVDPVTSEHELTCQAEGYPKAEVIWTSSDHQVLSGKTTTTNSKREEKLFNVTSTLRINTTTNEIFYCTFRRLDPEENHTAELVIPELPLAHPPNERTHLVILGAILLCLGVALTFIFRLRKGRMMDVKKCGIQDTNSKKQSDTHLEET
The target is the same in experiment [5]. Nature of the experiment: equilibrium binding to cells (method 'Cell'; cell line not stated).

Changes are numbered by the printed parent chain.

T1 sequence (Q9NZQ7 19-238 limits assumed): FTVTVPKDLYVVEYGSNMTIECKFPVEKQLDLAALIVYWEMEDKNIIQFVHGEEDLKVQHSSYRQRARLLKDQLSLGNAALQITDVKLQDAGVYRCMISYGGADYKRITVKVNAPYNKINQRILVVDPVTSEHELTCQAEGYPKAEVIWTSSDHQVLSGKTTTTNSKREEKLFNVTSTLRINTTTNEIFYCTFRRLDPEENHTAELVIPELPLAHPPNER

B1: B8 VNAR (VNAR)
VNAR: ARVDQTPQTITKETGESLTINCVLRDASYALGSTCWYRKKSGSTNEESISIGGRYVETVNSGSKSFSLRINDLTVEDSGTYRCGVDSWCPPVCSWAYAGCGDGTAVTVN
notes: VNAR (shark single domain); Measured on yeast and as a soluble fragment (BLI); Not the same as B8 scFv
Turning to B1, the Kd in experiment [1] was determined as 97.3 nM; in experiment [2], 33.5 nM. Besides, the “IC50 (read off the curve)” value in experiment [3] was around 100 nM.

B2: C7 VNAR (VNAR)
VNAR: ARVDQTPQTITKETGESLTINCVVRDSACALVRTFWYRKKSGSTNEESISKGGRYVETVNSGSKSFSLRINDLTVEDSGTYRCKVFGWCRMRDVYGGGTVVTVN
notes: Not the same as C7 scFv
As to B2, the Kd in experiment [1] was determined as 400 nM.

B3: A9 VNAR (VNAR)
VNAR: B2 VNAR with S27T, S61R
notes: VNAR (shark variable new antigen receptor single domain) from nurse sharks immunised with the PD-L1 ECD; Measured on yeast and as a soluble fragment (BLI)
As for B3, the Kd was 225 nM in experiment [1] and 127 nM in experiment [2].

B4: C4 VNAR (VNAR)
VNAR: B2 VNAR with Q8L, V24L, A28N, V32S, R33S, F35Y, K40S, S48I, K64N
In experiment [1], B4 yielded a Kd above 1000 nM.

B5: TS1521 (VNAR, part only; not given: atezolizumab heavy and light chains, part only)
heavy, part: ARVDQTPQTITKETGESLTINCVLRDASYALGSTCWYRKKSGSTNEESISIGGRYVETVNSGSKSFSLRINDLTVEDSGTYRCGVDSWCPPVCSWAYAGCGDGTAVTVNGGGGSGGGGSGGGGS
light, part: GGGGSGGGGSARVDQTPQTITKETGESLTINCVVRDTACALVRTFWYRKKSGSTNEESISKGGRYVETVNRGSKSFSLRINDLTVEDSGTYRCKVFGWCRMRDVYGGGTVVTVN
In the experiment with PD-L1 on cells [4], B5 displayed a TCR activation (NFAT-induced luminescence), FC50, antibody continuously present of 0.51 nM; a TCR activation (NFAT-induced luminescence), potency, antibody removed before addition of effector cells of 0.95 nM; a reduction in TCR activation potency, continued presence versus removal of antibody of 1.9 fold. For the same molecule, the Kd with PD-L1 on cells [5] is 0.204 nM.

B6: B11 VNAR (VNAR)
VNAR: ARVDQTPQTITKETGESLTINCVLRDSNCALSSTYWYRKKSGSTNEESISKGGRYVETVNSGSKSFSLRINDLTVEDSGTYRCRLFVSWLSDYDCATYYVSGGGTVVTVN
Take B6: in experiment [1], the Kd is above 1000 nM.

Values taken from patent publication US20260049144A1 (Johns Hopkins, published 2026).
